Measurements as given in the RNAGym collection of RNA variant scans (doi:10.7554/elife.80360).

B1: Twister Ribozyme (parent)
chain: AACACUGCCAAUGCCGGUCCCAAGCCCGGAUAAAAGUGGAGGGGGCGG

Variants of: B1
Assay: self-cleavage, relative activity (ratio to wild type); higher = more cleavage; co-transcriptional
A10U G45U gave a self-cleavage of 0.871.
Work on A2U G36U yielded a self-cleavage of 0.113.
For A22G U31C, the self-cleavage was 0.304.
Variant G17C U18C has a self-cleavage of 0.1.
G7C A34C showed a self-cleavage of 0.118.
C9A G24U showed a self-cleavage of 0.111.
In the case of C3A G39C, the self-cleavage is reported as 0.0623.
Work on A10C A40U yielded a self-cleavage of 0.155.
A10U G28U gave a self-cleavage of 0.929.
In the case of C15U A30U, the self-cleavage is reported as 0.925.
With C5G A23G the self-cleavage was 0.133.
For C8U A23G, the self-cleavage was 0.107.
Work on G29C G36C yielded a self-cleavage of 0.122.
In the case of G38C G39U, the self-cleavage is reported as 0.164.
G7C C19G gave a self-cleavage of 0.0745.
Variant G28C A35C has a self-cleavage of 0.912.
Work on C25A G47C yielded a self-cleavage of 0.0869.
With C5U G48C the self-cleavage was 0.883.
Variant C19A A40G has a self-cleavage of 0.124.
C14U U31C gave a self-cleavage of 1.22.
A4U G45C gave a self-cleavage of 0.0951.
For G36A G41U, the self-cleavage was 0.131.
C19G A33G gave a self-cleavage of 0.175.
C21G G36C showed a self-cleavage of 0.0148.
Variant C15A U37C has a self-cleavage of 0.168.
A1G A11C showed a self-cleavage of 0.349.
U37A gave a self-cleavage of 0.883.
C5A A11G showed a self-cleavage of 0.479.
In the case of A11G G16U, the self-cleavage is reported as 0.875.
Work on C19G G42U yielded a self-cleavage of 0.0912.
In the case of G41U G48C, the self-cleavage is reported as 0.738.
Work on G41U G48U yielded a self-cleavage of 0.584.
With G41C G45U the self-cleavage was 0.429.
For G41A G44U, the self-cleavage was 0.228.
C15A G36A showed a self-cleavage of 0.165.
With C5A G36A the self-cleavage was 0.583.
For C9G C26U, the self-cleavage was 0.0719.
Variant C5A G24A has a self-cleavage of 0.0547.
A11U G13U showed a self-cleavage of 0.694.
Variant A4C A40C has a self-cleavage of 0.0698.
C3A C21U showed a self-cleavage of 0.0858.
In the case of G16U C21A, the self-cleavage is reported as 0.137.
A22U A33C showed a self-cleavage of 0.737.
In the case of A4G G41A, the self-cleavage is reported as 0.244.
With C20U A22C the self-cleavage was 1.01.
A34G A40G gave a self-cleavage of 0.111.
In the case of C3G A11G, the self-cleavage is reported as 0.503.
Work on G36A yielded a self-cleavage of 0.843.
G7U A34G gave a self-cleavage of 0.0851.
G29C G48A gave a self-cleavage of 0.56.
Variant C9A G28A has a self-cleavage of 0.598.
C9A G28C gave a self-cleavage of 0.636.
A4U G17A showed a self-cleavage of 0.0705.
Variant C8A G13U has a self-cleavage of 0.261.
C5A C15A showed a self-cleavage of 0.214.
Work on C20G C21U yielded a self-cleavage of 0.115.
G13A G45C gave a self-cleavage of 0.229.
For C15U A32G, the self-cleavage was 0.891.
For A11U U18A, the self-cleavage was 1.
C8U A35G showed a self-cleavage of 0.559.
G24U C27U gave a self-cleavage of 0.13.
In the case of A10G C21G, the self-cleavage is reported as 0.0634.
Work on C8U G38U yielded a self-cleavage of 0.481.
With A32C A40U the self-cleavage was 0.123.
Variant C21U U31G has a self-cleavage of 0.115.
In the case of A22G A35G, the self-cleavage is reported as 0.138.
For U18G C27U, the self-cleavage was 0.0822.
A2C G29A gave a self-cleavage of 0.0998.
Variant C25U U31A has a self-cleavage of 0.666.
For C19A A34C, the self-cleavage was 0.0755.
For A33G G39U, the self-cleavage was 0.222.
Work on C5G U12A yielded a self-cleavage of 0.821.
In the case of G39U G45U, the self-cleavage is reported as 0.141.
For G39U G45A, the self-cleavage was 0.151.
Work on G7C G42C yielded a self-cleavage of 0.0454.
Variant G45C C46A has a self-cleavage of 0.564.
Variant C21A G41C has a self-cleavage of 0.457.
In the case of A23G A30G, the self-cleavage is reported as 0.647.
U31C G41U showed a self-cleavage of 0.764.
A33C G36A gave a self-cleavage of 0.175.
Variant C27U G28A has a self-cleavage of 0.478.
With A4C A23C the self-cleavage was 0.0177.
In the case of A4C G48A, the self-cleavage is reported as 0.134.
G16C U18A gave a self-cleavage of 0.336.
For G16A U31C, the self-cleavage was 0.816.
For G24U C26U, the self-cleavage was 0.122.
With C15G C27G the self-cleavage was 0.0738.
C9A U31A showed a self-cleavage of 0.72.
Work on C15A G48A yielded a self-cleavage of 0.528.
For C21G U37G, the self-cleavage was 0.083.
For C5G G48U, the self-cleavage was 0.627.
In the case of A1C G42A, the self-cleavage is reported as 0.16.
Work on C9G G47A yielded a self-cleavage of 0.38.
For A22U G41C, the self-cleavage was 0.142.
In the case of U6G A40G, the self-cleavage is reported as 0.137.
Work on U31A G42U yielded a self-cleavage of 0.341.
Work on A4C U18G yielded a self-cleavage of 0.111.
In the case of G13U U31C, the self-cleavage is reported as 0.639.
In the case of A33C A34U, the self-cleavage is reported as 0.969.
Work on C5G G16U yielded a self-cleavage of 0.0938.
For C8U C9A, the self-cleavage was 0.112.
For A4U C20U, the self-cleavage was 0.0245.
G7A A10C gave a self-cleavage of 0.459.
G44U G48C gave a self-cleavage of 0.427.
For G44U G48U, the self-cleavage was 0.545.
In the case of U6G G45C, the self-cleavage is reported as 0.104.
With C25A G39A the self-cleavage was 0.0801.
Variant G7U C26A has a self-cleavage of 0.0629.
With C8G A22U the self-cleavage was 0.157.
U6G C21U showed a self-cleavage of 0.0405.
With A11C G13A the self-cleavage was 0.188.
A11C G24A showed a self-cleavage of 0.0913.
Variant A11C G24U has a self-cleavage of 0.0789.
In the case of C14U A22C, the self-cleavage is reported as 1.15.
A2C C27U gave a self-cleavage of 0.0597.
Variant U6A G36U has a self-cleavage of 0.202.
For G17A C20U, the self-cleavage was 0.373.
In the case of A30G G47C, the self-cleavage is reported as 0.534.
With G7C C27A the self-cleavage was 0.0706.
With A4G A23U the self-cleavage was 0.358.
A11C A40G showed a self-cleavage of 0.12.
Work on C3G C8U yielded a self-cleavage of 0.389.
Work on C19G G45C yielded a self-cleavage of 0.231.
A33G G41U gave a self-cleavage of 0.381.
For A23G C26G, the self-cleavage was 0.107.
In the case of G29C A32C, the self-cleavage is reported as 0.662.
For C26A A34C, the self-cleavage was 0.0918.
C14U A33U gave a self-cleavage of 1.07.
For C8A G39A, the self-cleavage was 0.154.
G17C C27U showed a self-cleavage of 0.0804.
With U6C C25U the self-cleavage was 0.184.
Work on C8U G16C yielded a self-cleavage of 0.199.
G24A A40C gave a self-cleavage of 0.105.
Variant C3U U18C has a self-cleavage of 0.215.
With C3U U18G the self-cleavage was 0.0621.
In the case of G36C G39A, the self-cleavage is reported as 0.122.
For C25A G28A, the self-cleavage was 0.166.
With A22C C46A the self-cleavage was 1.02.
Variant U6G G36C has a self-cleavage of 0.0766.
U31G A40C gave a self-cleavage of 0.224.
Work on C15U G24C yielded a self-cleavage of 0.115.
With C46U G47A the self-cleavage was 0.874.
For C15U G29U, the self-cleavage was 0.652.
Work on U12G C15G yielded a self-cleavage of 0.115.
In the case of U6G U31A, the self-cleavage is reported as 0.169.
C14U G43U showed a self-cleavage of 0.526.
With A2U G47U the self-cleavage was 0.23.
Variant G16A G41C has a self-cleavage of 0.167.
Variant C25A A30C has a self-cleavage of 0.0625.
In the case of C19U A34C, the self-cleavage is reported as 0.083.
Work on U18A G41C yielded a self-cleavage of 0.0769.
C26U G47A showed a self-cleavage of 0.149.
C8A C25U gave a self-cleavage of 0.125.
In the case of A1C C46U, the self-cleavage is reported as 0.18.
Variant G17C G28C has a self-cleavage of 0.0667.
With A32G G44U the self-cleavage was 1.06.
Variant A1C U37C has a self-cleavage of 0.174.
Work on G24C C27G yielded a self-cleavage of 0.134.
In the case of A10G C19A, the self-cleavage is reported as 0.472.
In the case of G13A A40U, the self-cleavage is reported as 0.209.
For A32C G48U, the self-cleavage was 0.893.
With C8U C15U the self-cleavage was 0.768.
U12A A33C showed a self-cleavage of 1.04.
U12A G16U gave a self-cleavage of 1.09.
Variant C9A A32C has a self-cleavage of 0.665.
For C3G G44U, the self-cleavage was 0.425.
A10U C14U gave a self-cleavage of 0.884.
